In the supplement of paper PMC7877785:
± gives the uncertainty stated by the source.

Experiment: self-splicing fitness, log relative to wild type (ln ratio); higher = more splicing; Tetrahymena group I intron in knt gene, E. coli kanamycin selection, DiMSum; sequences stand for … in CUCUCU…GGAGGGAAAAGUUAUCAGGCAUGCACCUGGUAGCUAGUCUUUAAACCAAUAGAUUGCAUCGGUUUAAAAGGCAAGACCGUCAAAUUGCGGGAAAGGGGUCAACAGCCGUUCAGUACCAAGUCUCAGGGGAAACUUUGAGAUGGCCUUGCAAAGGGUAUGGUAAUAAGCUGACGGACAUGGUCCUAACCACGCAGCCAAGUCCUAAGUCAACAGAUCUUCUGUUGAUAUGGAUGCAGUUCACAGACUAAAUGUCGGUCGGGGAAGAUGUAUUCUUCUCAUAAGAUAUAGUCGGACCUCUCCUUAAUGGGAGCUAGCGGAUGAAGUGAUGCAACACUGGAGCCGCUGGGAACUAAUUUGUAUGCGAAAGUAUAUUGAUUAGUUUUGGAGUACUCGUGGUCG
Outline: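 Colonies from six replicate transformations of E. coli BL21(DE3) were pooled and amplicon-sequenced on an Illumina HiSeq 2500. The library placed an intron with all eight P1ex-region nucleotides randomised inside the knt kanamycin-resistance gene on pET-22b(+), and cells grew overnight at 37°C or 30°C on LB agar with or without 25 μg/mL kanamycin (plus 100 μg/mL carbenicillin, 50 μM IPTG, 0.2% rhamnose). Fitness is the DiMSum error-weighted combination of wild-type-normalised replicate fold changes, kanamycin versus none.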

Sequence | self-splicing fitness (ln) (30 °C) | self-splicing fitness (ln) (37 °C)
GCAUAGCAAUAUUACGAACC | -1.45 ± 0.089 | 0.452 ± 0.1
ACGCAGCAAUAUUACGCUUG | -3.56 ± 0.21 | -2.55 ± 0.2
UGGUAGCAAUAUUACGAAAG | -3.06 ± 0.26 | –
AUAGAGCAAUAUUACGACGC | -0.187 ± 0.14 | -0.765 ± 0.17
ACGGAGCAAUAUUACGCAGG | -1.72 ± 0.15 | -2.41 ± 0.35
GCACAGCAAUAUUACGCCAU | -3.37 ± 0.12 | -2.42 ± 0.12
AGUAAGCAAUAUUACGAAUA | -1.84 ± 0.38 | –
UGGGAGCAAUAUUACGUUCU | -2.95 ± 0.29 | -2.35 ± 0.32
UAACAGCAAUAUUACGCAUC | -4.63 ± 0.22 | -2.51 ± 0.17
CCCCAGCAAUAUUACGGUCG | -2.24 ± 0.068 | -1.2 ± 0.078
CGGAAGCAAUAUUACGAGGG | -0.374 ± 0.41 | –
AGCUAGCAAUAUUACGAUUC | -1.8 ± 0.11 | -0.417 ± 0.15
AAGUAGCAAUAUUACGAUGC | -2.76 ± 0.16 | -0.209 ± 0.15
GAACAGCAAUAUUACGAUGU | -1.05 ± 0.043 | -0.336 ± 0.06
CUGGAGCAAUAUUACGAAGU | -2.22 ± 0.37 | -2.38 ± 0.43
UUAGAGCAAUAUUACGACCU | -3.64 ± 0.41 | -1.49 ± 0.43
UAUCAGCAAUAUUACGGAUG | -1.11 ± 0.084 | 0.0808 ± 0.091
GACCAGCAAUAUUACGGAAU | -0.34 ± 0.046 | 0.128 ± 0.066
CCGCAGCAAUAUUACGAGGU | -3.73 ± 0.2 | -1.84 ± 0.19
AUUCAGCAAUAUUACGGUUG | -2.89 ± 0.11 | -0.981 ± 0.11
AGCCAGCAAUAUUACGGGAU | -4 ± 0.17 | -2.05 ± 0.12
CCCCAGCAAUAUUACGCCGA | – | -2.04 ± 0.25
UAAUAGCAAUAUUACGGCAG | -1.08 ± 0.1 | -0.425 ± 0.13
AGGUAGCAAUAUUACGAGGA | -3.39 ± 0.034 | -2.43 ± 0.041
UCUGAGCAAUAUUACGGUUC | – | -2.51 ± 0.4

Sequence | self-splicing fitness (ln) (30 °C) | self-splicing fitness (ln) (37 °C)
GGGAAGCAAUAUUACGAGGG | -4.09 ± 0.24 | -2.67 ± 0.19
CCAAAGCAAUAUUACGGAGU | -2.7 ± 0.13 | -2.35 ± 0.2
CACAAGCAAUAUUACGCCGU | -2.15 ± 0.23 | -2.36 ± 0.26
GUGAAGCAAUAUUACGGCGA | 0.0822 ± 0.15 | 0.297 ± 0.18
UCAGAGCAAUAUUACGGCGU | -3.42 ± 0.22 | -2.05 ± 0.18
AAGGAGCAAUAUUACGCAUC | -5.17 ± 0.36 | -2.52 ± 0.19
AGGCAGCAAUAUUACGUAUA | -3.08 ± 0.15 | -1.56 ± 0.12
ACCGAGCAAUAUUACGACUG | -2.73 ± 0.17 | -1.04 ± 0.16
CUCAAGCAAUAUUACGAAGG | -1.11 ± 0.071 | -1.42 ± 0.15
AGAUAGCAAUAUUACGGGUA | -1.35 ± 0.11 | -1.8 ± 0.14
AUCCAGCAAUAUUACGGCCA | -0.362 ± 0.071 | -0.298 ± 0.084
GAAGAGCAAUAUUACGUCAU | -3.91 ± 0.48 | -2.13 ± 0.38
ACUCAGCAAUAUUACGAUUG | -2.74 ± 0.084 | -1.59 ± 0.1
CCCAAGCAAUAUUACGGUGG | -3.69 ± 0.15 | -2.71 ± 0.15
UGAAAGCAAUAUUACGCCCG | -0.527 ± 0.15 | -0.0303 ± 0.21
CCAUAGCAAUAUUACGACAA | -3.06 ± 0.41 | -2.94 ± 0.35
CGGGAGCAAUAUUACGAAUA | -2.55 ± 0.36 | -2.52 ± 0.39
UGGAAGCAAUAUUACGGACU | -0.345 ± 0.11 | 0.284 ± 0.12
ACAAAGCAAUAUUACGGUUA | -1.58 ± 0.092 | -0.719 ± 0.078
UGGGAGCAAUAUUACGAGUC | – | -1.83 ± 0.47
GGCUAGCAAUAUUACGAUAU | -1.79 ± 0.17 | -1.84 ± 0.16
UACCAGCAAUAUUACGCAAU | -2.29 ± 0.091 | -0.841 ± 0.076
GCGCAGCAAUAUUACGCUCA | -0.576 ± 0.14 | 0.238 ± 0.16
GCCUAGCAAUAUUACGUUGU | -0.142 ± 0.04 | 0.252 ± 0.055
CGGUAGCAAUAUUACGCGGG | -2.49 ± 0.18 | -1.88 ± 0.24

Sequence | self-splicing fitness (ln) (30 °C) | self-splicing fitness (ln) (37 °C)
UAAUAGCAAUAUUACGCGGA | – | -1.82 ± 0.19
UAAAAGCAAUAUUACGACUG | 0.248 ± 0.1 | -0.671 ± 0.12
UCGUAGCAAUAUUACGCGCG | -1.62 ± 0.12 | -1.34 ± 0.15
CUUCAGCAAUAUUACGCCGG | -2.73 ± 0.34 | –
AAAUAGCAAUAUUACGAAAG | -3.48 ± 0.18 | -1.6 ± 0.14
ACCAAGCAAUAUUACGUCGG | -2.09 ± 0.074 | -1.36 ± 0.09
CAUGAGCAAUAUUACGUUGU | -4.13 ± 0.29 | -3.57 ± 0.19
CUAGAGCAAUAUUACGUCAC | -3.34 ± 0.36 | -1.72 ± 0.29
GUAGAGCAAUAUUACGACGA | -1.85 ± 0.15 | -0.21 ± 0.16
CUGAAGCAAUAUUACGCUGC | -2.12 ± 0.34 | –
UAAAAGCAAUAUUACGUUGU | -3.71 ± 0.14 | -1.96 ± 0.14
GUUGAGCAAUAUUACGGCUC | -2.04 ± 0.31 | -1.38 ± 0.31
CCUCAGCAAUAUUACGUUAU | -3.74 ± 0.17 | -2.49 ± 0.17
CGCGAGCAAUAUUACGACCU | -0.582 ± 0.16 | -1.81 ± 0.21
UGGAAGCAAUAUUACGGGAC | -2.63 ± 0.21 | -3.26 ± 0.32
AGAGAGCAAUAUUACGGAUC | -3.76 ± 0.42 | –
CGACAGCAAUAUUACGACCG | -0.981 ± 0.1 | 0.0442 ± 0.18
UUGUAGCAAUAUUACGAGAU | -2.41 ± 0.33 | -2.32 ± 0.31
UCAUAGCAAUAUUACGCGGU | -3.43 ± 0.25 | -2.2 ± 0.25
UUCAAGCAAUAUUACGGAUU | -3.19 ± 0.17 | -1.96 ± 0.14
GAUUAGCAAUAUUACGAUCG | -1.06 ± 0.11 | -0.387 ± 0.12
GCUUAGCAAUAUUACGGAAA | -2.37 ± 0.25 | -0.752 ± 0.17
GGCCAGCAAUAUUACGGUAG | -0.883 ± 0.063 | 0.303 ± 0.083
GCCUAGCAAUAUUACGAGGG | -3.68 ± 0.21 | -1.6 ± 0.15
GUCAAGCAAUAUUACGCACC | – | -0.99 ± 0.47

Sequence | self-splicing fitness (ln) (30 °C) | self-splicing fitness (ln) (37 °C)
AUUUAGCAAUAUUACGAAGA | -2.11 ± 0.4 | -1.36 ± 0.34
UAUUAGCAAUAUUACGCGCU | -0.731 ± 0.15 | -0.558 ± 0.18
CGAAAGCAAUAUUACGGAUU | -3.5 ± 0.2 | -2.63 ± 0.19
CCAAAGCAAUAUUACGCCCC | – | -0.985 ± 0.44
AACGAGCAAUAUUACGUAGU | -3.97 ± 0.15 | -2.24 ± 0.15
UCAAAGCAAUAUUACGUGGU | -4.25 ± 0.26 | -2.19 ± 0.18
GAACAGCAAUAUUACGAGCA | -1.01 ± 0.1 | -0.521 ± 0.1
CAUUAGCAAUAUUACGAUGA | -2.12 ± 0.2 | -1.09 ± 0.15
AGCAAGCAAUAUUACGAGCG | 0.283 ± 0.061 | -0.223 ± 0.076
UGACAGCAAUAUUACGAAUC | -3.49 ± 0.37 | -1.68 ± 0.31
CACGAGCAAUAUUACGCUAG | – | -2.4 ± 0.28
GCAAAGCAAUAUUACGUCAU | -2.25 ± 0.096 | -1.37 ± 0.091
CGACAGCAAUAUUACGAGCG | -2.02 ± 0.13 | -0.549 ± 0.099
AAUGAGCAAUAUUACGAUUG | -1.99 ± 0.38 | -1.14 ± 0.26
UUGUAGCAAUAUUACGCCGG | -0.988 ± 0.16 | -0.179 ± 0.27
UUGUAGCAAUAUUACGGGAG | – | -2.84 ± 0.4
CUUCAGCAAUAUUACGCAUC | -2.85 ± 0.22 | -2.68 ± 0.22
AUAUAGCAAUAUUACGAUCA | -1.4 ± 0.16 | -0.365 ± 0.22
GCAUAGCAAUAUUACGGUCG | -1.77 ± 0.12 | -1.12 ± 0.12
CAGGAGCAAUAUUACGAUAG | -1.19 ± 0.12 | -0.223 ± 0.13
UUUAAGCAAUAUUACGUUCA | -1.08 ± 0.11 | -0.403 ± 0.12
ACCCAGCAAUAUUACGGUAG | -3.82 ± 0.11 | -2.97 ± 0.16
UAUCAGCAAUAUUACGAUAA | -0.166 ± 0.081 | -0.065 ± 0.092
UAGCAGCAAUAUUACGGAAC | -4.05 ± 0.27 | -3.08 ± 0.31
